Reference: publication doi:10.1101/2021.10.11.464003

T1: MhAgo_DM (Marinitoga hydrogenitolerans, UniProt A0A1M5A5Z8 1-640, D445A;D515A)
T1 sequence: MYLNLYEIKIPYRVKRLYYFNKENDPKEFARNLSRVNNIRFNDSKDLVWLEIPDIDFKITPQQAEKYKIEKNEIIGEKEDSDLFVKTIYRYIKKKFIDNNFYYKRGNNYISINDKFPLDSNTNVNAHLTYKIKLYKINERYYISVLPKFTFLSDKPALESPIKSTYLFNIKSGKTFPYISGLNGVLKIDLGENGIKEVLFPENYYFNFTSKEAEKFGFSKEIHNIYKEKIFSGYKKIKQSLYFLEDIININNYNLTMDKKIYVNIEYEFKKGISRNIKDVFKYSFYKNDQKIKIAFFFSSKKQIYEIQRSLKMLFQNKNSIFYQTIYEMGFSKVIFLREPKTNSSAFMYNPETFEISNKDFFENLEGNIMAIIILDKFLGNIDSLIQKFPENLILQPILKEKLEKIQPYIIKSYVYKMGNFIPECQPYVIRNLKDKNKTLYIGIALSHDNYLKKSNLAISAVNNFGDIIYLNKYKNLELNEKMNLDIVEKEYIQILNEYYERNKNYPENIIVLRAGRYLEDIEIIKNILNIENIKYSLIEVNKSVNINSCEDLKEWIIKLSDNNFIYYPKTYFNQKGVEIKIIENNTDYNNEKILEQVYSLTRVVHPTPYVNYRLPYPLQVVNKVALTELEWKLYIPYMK


Each binder was assayed against T1, MhAgo_DM (assay: EMSA).

Binder	Kd
5'OH-gRNA:tRNA duplex (dsRNA, guide 5'OH) RNA 1: CGAGGUAGUAGGUUGUAU RNA 2: AAACGACGGCCAGUGCCAAGCUUACUAUACAACCUACUACCUCGU	125 ± 6.83 nM
5'P-gRNA:tRNA duplex (dsRNA, guide 5' phosphate) RNA 1: CGAGGUAGUAGGUUGUAU RNA 2: AAACGACGGCCAGUGCCAAGCUUACUAUACAACCUACUACCUCGU	232 ± 5.07 nM
5'OH-gDNA:tDNA duplex (dsDNA, guide 5'OH) DNA 1: CGAGGTAGTAGGTTGTAT DNA 2: AAACGACGGCCAGTGCCAAGCTTACTATACAACCTACTACCTCGT	119 ± 4.8 nM
5'P-gDNA:tDNA duplex (dsDNA, guide 5' phosphate) DNA 1: CGAGGTAGTAGGTTGTAT DNA 2: AAACGACGGCCAGTGCCAAGCTTACTATACAACCTACTACCTCGT	145 ± 11.5 nM
5'OH-gRNA:tDNA duplex (DNA:RNA, guide 5'OH) RNA: CGAGGUAGUAGGUUGUAU DNA: AAACGACGGCCAGTGCCAAGCTTACTATACAACCTACTACCTCGT	121 ± 4.66 nM
5'P-gRNA:tDNA duplex (DNA:RNA, guide 5' phosphate) RNA: CGAGGUAGUAGGUUGUAU DNA: AAACGACGGCCAGTGCCAAGCTTACTATACAACCTACTACCTCGT	148 ± 4.52 nM
5'OH-gDNA:tRNA duplex (DNA:RNA, guide 5'OH) DNA: CGAGGTAGTAGGTTGTAT RNA: AAACGACGGCCAGUGCCAAGCUUACUAUACAACCUACUACCUCGU	102 ± 1.69 nM
5'P-gDNA:tRNA duplex (DNA:RNA, guide 5' phosphate) DNA: CGAGGTAGTAGGTTGTAT RNA: AAACGACGGCCAGUGCCAAGCUUACUAUACAACCUACUACCUCGU	140 ± 5.37 nM
